Assay results as given in the supplement of paper PMC7877785.
± gives the uncertainty stated by the source.

Test: self-splicing fitness, log relative to wild type (ln ratio); higher = more splicing; Tetrahymena group I intron in knt gene, E. coli kanamycin selection, DiMSum; sequences stand for … in CUCUCU…GGAGGGAAAAGUUAUCAGGCAUGCACCUGGUAGCUAGUCUUUAAACCAAUAGAUUGCAUCGGUUUAAAAGGCAAGACCGUCAAAUUGCGGGAAAGGGGUCAACAGCCGUUCAGUACCAAGUCUCAGGGGAAACUUUGAGAUGGCCUUGCAAAGGGUAUGGUAAUAAGCUGACGGACAUGGUCCUAACCACGCAGCCAAGUCCUAAGUCAACAGAUCUUCUGUUGAUAUGGAUGCAGUUCACAGACUAAAUGUCGGUCGGGGAAGAUGUAUUCUUCUCAUAAGAUAUAGUCGGACCUCUCCUUAAUGGGAGCUAGCGGAUGAAGUGAUGCAACACUGGAGCCGCUGGGAACUAAUUUGUAUGCGAAAGUAUAUUGAUUAGUUUUGGAGUACUCGUGGUCG
Procedure, shortened: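 Pooled colonies went to amplicon sequencing on an Illumina HiSeq 2500 after six replicate transformations. The plates were LB agar with 100 μg/mL carbenicillin, 50 μM IPTG and 0.2% rhamnose, with or without 25 μg/mL kanamycin, incubated overnight at 37°C or 30°C. The E. coli BL21(DE3) library had all eight P1ex-region intron nucleotides randomised, the intron placed in the knt kanamycin-resistance gene on pET-22b(+). DiMSum fitness is the error-weighted combination of replicate fold changes, kanamycin against none, normalised to wild type.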

Sequence	self-splicing fitness (ln) (30 °C)	self-splicing fitness (ln) (37 °C)
UGGCAGCAAUAUUACGGUGA	-0.428 ± 0.097	0.214 ± 0.12
UGGCAGCAAUAUUACGGUGG	-0.928 ± 0.079	-0.811 ± 0.11
UGGCAGCAAUAUUACGUGAC	-2.83 ± 0.31	-1.22 ± 0.25
UGGCAGCAAUAUUACGUGCC		-1.69 ± 0.26
UGGCAGCAAUAUUACGUUGU	-3.71 ± 0.29	-3.17 ± 0.3
UGGGAGCAAUAUUACGACCU	-0.992 ± 0.41	-0.238 ± 0.46
UGGGAGCAAUAUUACGACGU	-2.93 ± 0.22	-2.37 ± 0.29
UGGGAGCAAUAUUACGACUA	-1.68 ± 0.35	0.369 ± 0.3
UGGGAGCAAUAUUACGAGGG		-1.99 ± 0.42
UGGGAGCAAUAUUACGCACU	-3.4 ± 0.35	-1.76 ± 0.33
UGGGAGCAAUAUUACGCCGC	-2.27 ± 0.47	
UGGGAGCAAUAUUACGCUCG		-1.25 ± 0.46
UGGGAGCAAUAUUACGGAAA	-2.04 ± 0.31	
UGGGAGCAAUAUUACGGAUA	-2.61 ± 0.32	-2.52 ± 0.32
UGGGAGCAAUAUUACGGCCA	-1.58 ± 0.13	-0.684 ± 0.16
UGGGAGCAAUAUUACGGGCA	-2.36 ± 0.16	-0.757 ± 0.16
UGGGAGCAAUAUUACGGGUU		-2.02 ± 0.47
UGGGAGCAAUAUUACGUAAC	-1.63 ± 0.41	
UGGGAGCAAUAUUACGUCUG	-1.46 ± 0.12	-0.899 ± 0.17
UGGGAGCAAUAUUACGUGCU	-2.65 ± 0.32	-1.05 ± 0.25
UGGGAGCAAUAUUACGUGGC	-4.39 ± 0.39	-1.68 ± 0.23

Sequence	self-splicing fitness (ln) (30 °C)	self-splicing fitness (ln) (37 °C)
UGGGAGCAAUAUUACGUGUC	-2.08 ± 0.19	-2.59 ± 0.33
UGGGAGCAAUAUUACGUUGA	-3.73 ± 0.37	-2.06 ± 0.27
UGGGAGCAAUAUUACGUUUA	-2.62 ± 0.29	-2.92 ± 0.33
UGGUAGCAAUAUUACGACCU	-0.697 ± 0.13	0.261 ± 0.14
UGGUAGCAAUAUUACGACGU	-0.945 ± 0.12	-0.0819 ± 0.16
UGGUAGCAAUAUUACGAGCA	-0.502 ± 0.15	-0.131 ± 0.21
UGGUAGCAAUAUUACGAGCC	-2.3 ± 0.32	-1.91 ± 0.26
UGGUAGCAAUAUUACGAGCG	-0.4 ± 0.053	-0.521 ± 0.081
UGGUAGCAAUAUUACGAUGU	-3.19 ± 0.19	-2.12 ± 0.26
UGGUAGCAAUAUUACGAUUC	-2.63 ± 0.24	-2.05 ± 0.26
UGGUAGCAAUAUUACGCACG	-0.419 ± 0.17	
UGGUAGCAAUAUUACGCCUG	0.0915 ± 0.14	0.675 ± 0.2
UGGUAGCAAUAUUACGCGAG	-1.29 ± 0.17	-2.17 ± 0.24
UGGUAGCAAUAUUACGCGCA	-0.453 ± 0.1	0.351 ± 0.11
UGGUAGCAAUAUUACGCGUG	-0.581 ± 0.087	0.251 ± 0.1
UGGUAGCAAUAUUACGGACA	-0.879 ± 0.12	0.135 ± 0.16
UGGUAGCAAUAUUACGGAGA		-1.24 ± 0.2
UGGUAGCAAUAUUACGGAUG	-1.34 ± 0.15	0.065 ± 0.13
UGGUAGCAAUAUUACGGCAA	-1.14 ± 0.086	0.277 ± 0.1
UGGUAGCAAUAUUACGGCGA	-0.171 ± 0.19	0.49 ± 0.15
